Experimental findings from PMC8575140 (bioRxiv, 2021) are described below.

The target of the assay is SARS-CoV-2 receptor-binding domain (SARS-CoV-2, UniProt P0DTC2).

B1: NCI-CoV-1B5 VHH (VHH)
VHH: DVQLVESGGGSVQAGGSLRLSCTGSRYTYSTYCMGWFRQAPGKEEEAVAIINSGGGEPYYGDSVKGRFTISQDRAKNTVYLQMDGLQPDDTAIYYCVAADSHNSRCYLGRSYVNYWGQGTQVTVSS
One may read the IC50 as the point on the concentration scale where inhibition reaches its midpoint. With B1, the IC50 is 3.2 nM.
